This note sets out measurements from paper PMC8851480 (Proceedings of the National Academy of Sciences of the …, 2022).

The target of assay [1] is N-terminal FLAG-tagged EBP50 (ERM-binding phosphoprotein 50) (human) (UniProt O14745). As to the kind of experiment: RNA immunoprecipitation.
In assay [2] the target is ezrin, endogenous in HEK293T cells (human (endogenous in HEK293T), UniProt P15311 1-586). As to the kind of experiment: RNA immunoprecipitation.
ezrin, endogenous in HEK293T cells, sequence (P15311 whole entry): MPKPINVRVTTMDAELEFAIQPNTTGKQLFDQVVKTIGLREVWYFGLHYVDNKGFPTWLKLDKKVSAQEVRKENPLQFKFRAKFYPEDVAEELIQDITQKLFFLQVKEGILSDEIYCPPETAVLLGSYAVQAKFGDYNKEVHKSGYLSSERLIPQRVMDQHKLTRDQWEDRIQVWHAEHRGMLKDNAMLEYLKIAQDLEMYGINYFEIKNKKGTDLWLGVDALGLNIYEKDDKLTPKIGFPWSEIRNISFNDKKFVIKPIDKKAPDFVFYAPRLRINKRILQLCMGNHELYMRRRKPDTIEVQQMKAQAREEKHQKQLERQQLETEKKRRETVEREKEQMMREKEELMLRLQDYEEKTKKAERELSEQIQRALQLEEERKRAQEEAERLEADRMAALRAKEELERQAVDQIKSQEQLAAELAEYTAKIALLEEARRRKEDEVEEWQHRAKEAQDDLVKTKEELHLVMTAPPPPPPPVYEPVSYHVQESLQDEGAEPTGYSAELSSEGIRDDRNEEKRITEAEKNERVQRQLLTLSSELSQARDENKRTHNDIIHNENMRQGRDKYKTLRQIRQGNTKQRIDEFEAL

In turn, “ezrin, endogenous in HEK293T cells (from UniProt P15311 1-586) (natural protein)” displayed a fold enrichment of EZR mRNA over control IgG (RIP-qRT-PCR) in assay [1] of 100 fold.

Take RRRRRRRRRKERAHQKRSSKRAPQMDWSKKNELFSNL [Arg9-EBD peptide (28-amino-acid C terminus of the EBP50 EBD with an upstream 9-arginine sequence)]: the “fold reduction of the EBP50-EZR mRNA RIP signal against control peptide” value in assay [2] is about 10 fold.
